Experimental findings from publication PMC10119177 (2023) are described below.

The target in this experiment is recombinant IgI3 domain of the S. pyogenes R28 protein (R28-IgI3), wildtype (S. pyogenes) (UniProt Q9XDB6). The experiment can be described thus: ITC; iTC200, 25 °C, 16 injections of 2.42 µl, 30 mM Tris-HCl, 150 mM NaCl, pH 7.5, 750 rpm, in duplicate; 500 µM rCEACAM-N domains in the syringe, 50 µM rR28-IgI3 (methods). A general note: ITC needs no label: the signal is the heat of the interaction.
In the case of “rCEACAM1-N V96A (from UniProt P13688 34-141) (domain or fragment)”, the Kd (commonly the constant that tells how readily two partners part at equilibrium) turned out to be 116 nM.

For “rCEACAM1-N Q89A (from UniProt P13688 34-141) (domain or fragment)”, the Kd was determined as 687 nM.

Consider “rCEACAM1-N Q44A (from UniProt P13688 34-141) (domain or fragment)”, for which the Kd was determined as 920 nM.

Take “rCEACAM1-N N97A (from UniProt P13688 34-141) (domain or fragment)”: the Kd worked out at 210 nM.
